To fix the notation:
B1: C20orf112 (parent)
chain: YANGGLNYSYRGYGALSSNLQPPA
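Note: lentivirally expressed fusions sorted by FACS into six bins by GFP to DsRed ratio, PSI derived from sequencing read proportions per bin multiplied by bin number.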

The variants in the data set derive from B1. Description: protein stability index of a GFP-peptide fusion (GPS, HEK-293T) (PSI 1-6); higher = more stable. The following applies: c terminus: a fixed tail appended.
As for YADGGLNYSYRGYGALSSNLQPPA [N3D], the protein stability index amounted to 2.56. The result for YCNGGLNYSYRGYGALSSNLQPPA [A2C] reads 1.87; that for YNNGGLNYSYRGYGALSSNLQPPA [A2N], 2.3. On to YTNGGLNYSYRGYGALSSNLQPPA [A2T], for which the protein stability index stood at 1.99.

For YVNGGLNYSYRGYGALSSNLQPPA [A2V], the protein stability index is 2.49. The result for YYNGGLNYSYRGYGALSSNLQPPA [A2Y] reads 2.63; that for YQNGGLNYSYRGYGALSSNLQPPA [A2Q], 1.4.

For the variant YRNGGLNYSYRGYGALSSNLQPPA [A2R], the protein stability index stood at 2.22. The result for YHNGGLNYSYRGYGALSSNLQPPA [A2H] reads 1.62. The result for YENGGLNYSYRGYGALSSNLQPPA [A2E] reads 2.63.

For YWNGGLNYSYRGYGALSSNLQPPA [A2W], the protein stability index amounted to 2.22.

For the variant YINGGLNYSYRGYGALSSNLQPPA [A2I], the protein stability index was 2.1. The result for YMNGGLNYSYRGYGALSSNLQPPA [A2M] reads 1.68. In the case of YKNGGLNYSYRGYGALSSNLQPPA [A2K], the protein stability index is 2.19.

In the case of YFNGGLNYSYRGYGALSSNLQPPA [A2F], the protein stability index is 2.07. Take YDNGGLNYSYRGYGALSSNLQPPA [A2D]: the protein stability index came to 2.81. The result for YLNGGLNYSYRGYGALSSNLQPPA [A2L] reads 1.93; that for YGNGGLNYSYRGYGALSSNLQPPA [A2G], 1.95; that for YSNGGLNYSYRGYGALSSNLQPPA [A2S], 1.54. The result for YANGGLNYHYRGYGALSSNLQPPA [S9H] reads 1.82; that for YANGGLNYIYRGYGALSSNLQPPA [S9I], 2.58; that for YANGGLNYVYRGYGALSSNLQPPA [S9V], 2.6.

On to YANGGLNYAYRGYGALSSNLQPPA [S9A], for which the protein stability index was 2.35. YANGGLNYRYRGYGALSSNLQPPA [S9R]: the protein stability index amounted to 1.67. With YANGGLNYPYRGYGALSSNLQPPA [S9P], the protein stability index was determined as 1.7. YANGGLNYFYRGYGALSSNLQPPA [S9F]: the protein stability index was 2.99. Turning to YANGGLNYCYRGYGALSSNLQPPA [S9C], the protein stability index was determined as 1.7.

As for YANGGLNYMYRGYGALSSNLQPPA [S9M], the protein stability index worked out at 2.77. The value for YANGGLNYKYRGYGALSSNLQPPA [S9K] was 1.57; that for YANGGLNYEYRGYGALSSNLQPPA [S9E] was 1.43. In the case of YANGGLNYGYRGYGALSSNLQPPA [S9G], the protein stability index came out at 1.88. The result for YANGGLNYDYRGYGALSSNLQPPA [S9D] reads 1.97; that for YANGGLNYTYRGYGALSSNLQPPA [S9T], 1.82. The value for YANGGLNYWYRGYGALSSNLQPPA [S9W] was 2.46. For the variant YANGGLNYNYRGYGALSSNLQPPA [S9N], the protein stability index came to 1.89. In the case of YANGGLNYQYRGYGALSSNLQPPA [S9Q], the protein stability index turned out to be 1.46. Consider YANGGLNYYYRGYGALSSNLQPPA [S9Y], for which the protein stability index came to 1.59.

As to YANGNLNYSYRGYGALSSNLQPPA [G5N], the protein stability index was 1.72.

For the variant YANGLLNYSYRGYGALSSNLQPPA [G5L], the protein stability index was 1.9. The value for YANGFLNYSYRGYGALSSNLQPPA [G5F] was 1.98; that for YANGALNYSYRGYGALSSNLQPPA [G5A] was 1.99; that for YANGRLNYSYRGYGALSSNLQPPA [G5R] was 1.98. The value for YANGVLNYSYRGYGALSSNLQPPA [G5V] was 2.03; that for YANGYLNYSYRGYGALSSNLQPPA [G5Y] was 1.86. The value for YANGDLNYSYRGYGALSSNLQPPA [G5D] was 2.08; that for YANGPLNYSYRGYGALSSNLQPPA [G5P] was 2.02; that for YANGILNYSYRGYGALSSNLQPPA [G5I] was 2.21. Regarding YANGTLNYSYRGYGALSSNLQPPA [G5T], the protein stability index worked out at 1.91.

In the case of YANGCLNYSYRGYGALSSNLQPPA [G5C], the protein stability index came out at 2.2.

As to YANGWLNYSYRGYGALSSNLQPPA [G5W], the protein stability index stood at 2.37.

For the variant YANGELNYSYRGYGALSSNLQPPA [G5E], the protein stability index amounted to 2.4.

With YANGQLNYSYRGYGALSSNLQPPA [G5Q], the protein stability index was 1.93.

In the case of YANGKLNYSYRGYGALSSNLQPPA [G5K], the protein stability index turned out to be 1.82. The result for YANGHLNYSYRGYGALSSNLQPPA [G5H] reads 2.08; that for YANGMLNYSYRGYGALSSNLQPPA [G5M], 2.49. The result for YANGSLNYSYRGYGALSSNLQPPA [G5S] reads 1.65. The value for YANGGLCYSYRGYGALSSNLQPPA [N7C] was 2.1; that for YANGGLIYSYRGYGALSSNLQPPA [N7I] was 2.27. With YANGGLMYSYRGYGALSSNLQPPA [N7M], the protein stability index is 2.76. The value for YANGGLVYSYRGYGALSSNLQPPA [N7V] was 1.15; that for YANGGLFYSYRGYGALSSNLQPPA [N7F] was 3.66; that for YANGGLLYSYRGYGALSSNLQPPA [N7L] was 3.75.

Turning to YANGGLKYSYRGYGALSSNLQPPA [N7K], the protein stability index was 1.81. The result for YANGGLPYSYRGYGALSSNLQPPA [N7P] reads 2.47; that for YANGGLQYSYRGYGALSSNLQPPA [N7Q], 2.08; that for YANGGLYYSYRGYGALSSNLQPPA [N7Y], 2.53. The value for YANGGLWYSYRGYGALSSNLQPPA [N7W] was 2.86; that for YANGGLEYSYRGYGALSSNLQPPA [N7E] was 2.52. The value for YANGGLSYSYRGYGALSSNLQPPA [N7S] was 2.38; that for YANGGLGYSYRGYGALSSNLQPPA [N7G] was 3.08. With YANGGLRYSYRGYGALSSNLQPPA [N7R], the protein stability index is 1.52. The result for YANGGLHYSYRGYGALSSNLQPPA [N7H] reads 3.47.

For YANGGLDYSYRGYGALSSNLQPPA [N7D], the protein stability index came to 1.36. The result for YANGGLTYSYRGYGALSSNLQPPA [N7T] reads 1.2. The result for YANGGLAYSYRGYGALSSNLQPPA [N7A] reads 2.81; that for YANGGLNYSSRGYGALSSNLQPPA [Y10S], 2.48. The value for YANGGLNYSPRGYGALSSNLQPPA [Y10P] was 1.92; that for YANGGLNYSLRGYGALSSNLQPPA [Y10L] was 2.3; that for YANGGLNYSKRGYGALSSNLQPPA [Y10K] was 1.73. In the case of YANGGLNYSARGYGALSSNLQPPA [Y10A], the protein stability index turned out to be 1.9. The value for YANGGLNYSNRGYGALSSNLQPPA [Y10N] was 1.89; that for YANGGLNYSGRGYGALSSNLQPPA [Y10G] was 1.5; that for YANGGLNYSIRGYGALSSNLQPPA [Y10I] was 1.99.

With YANGGLNYSRRGYGALSSNLQPPA [Y10R], the protein stability index stood at 2.01. The result for YANGGLNYSERGYGALSSNLQPPA [Y10E] reads 1.32; that for YANGGLNYSWRGYGALSSNLQPPA [Y10W], 2.66; that for YANGGLNYSFRGYGALSSNLQPPA [Y10F], 1.5. Take YANGGLNYSTRGYGALSSNLQPPA [Y10T]: the protein stability index was found to be 2.25.

On to YANGGLNYSQRGYGALSSNLQPPA [Y10Q], for which the protein stability index came out at 1.77. The result for YANGGLNYSCRGYGALSSNLQPPA [Y10C] reads 2.23; that for YANGGLNYSMRGYGALSSNLQPPA [Y10M], 2.97; that for YANGGLNYSHRGYGALSSNLQPPA [Y10H], 2.15.

Regarding YANGGLNYSDRGYGALSSNLQPPA [Y10D], the protein stability index was 1.54.

Turning to YANGGLNYSVRGYGALSSNLQPPA [Y10V], the protein stability index turned out to be 1.89.

(Values after the supplement of paper PMC10567573.)
